Numbering of substitutions follows the chain as printed.
T1: Cas12i2 E563R (E563R)
T1 chain: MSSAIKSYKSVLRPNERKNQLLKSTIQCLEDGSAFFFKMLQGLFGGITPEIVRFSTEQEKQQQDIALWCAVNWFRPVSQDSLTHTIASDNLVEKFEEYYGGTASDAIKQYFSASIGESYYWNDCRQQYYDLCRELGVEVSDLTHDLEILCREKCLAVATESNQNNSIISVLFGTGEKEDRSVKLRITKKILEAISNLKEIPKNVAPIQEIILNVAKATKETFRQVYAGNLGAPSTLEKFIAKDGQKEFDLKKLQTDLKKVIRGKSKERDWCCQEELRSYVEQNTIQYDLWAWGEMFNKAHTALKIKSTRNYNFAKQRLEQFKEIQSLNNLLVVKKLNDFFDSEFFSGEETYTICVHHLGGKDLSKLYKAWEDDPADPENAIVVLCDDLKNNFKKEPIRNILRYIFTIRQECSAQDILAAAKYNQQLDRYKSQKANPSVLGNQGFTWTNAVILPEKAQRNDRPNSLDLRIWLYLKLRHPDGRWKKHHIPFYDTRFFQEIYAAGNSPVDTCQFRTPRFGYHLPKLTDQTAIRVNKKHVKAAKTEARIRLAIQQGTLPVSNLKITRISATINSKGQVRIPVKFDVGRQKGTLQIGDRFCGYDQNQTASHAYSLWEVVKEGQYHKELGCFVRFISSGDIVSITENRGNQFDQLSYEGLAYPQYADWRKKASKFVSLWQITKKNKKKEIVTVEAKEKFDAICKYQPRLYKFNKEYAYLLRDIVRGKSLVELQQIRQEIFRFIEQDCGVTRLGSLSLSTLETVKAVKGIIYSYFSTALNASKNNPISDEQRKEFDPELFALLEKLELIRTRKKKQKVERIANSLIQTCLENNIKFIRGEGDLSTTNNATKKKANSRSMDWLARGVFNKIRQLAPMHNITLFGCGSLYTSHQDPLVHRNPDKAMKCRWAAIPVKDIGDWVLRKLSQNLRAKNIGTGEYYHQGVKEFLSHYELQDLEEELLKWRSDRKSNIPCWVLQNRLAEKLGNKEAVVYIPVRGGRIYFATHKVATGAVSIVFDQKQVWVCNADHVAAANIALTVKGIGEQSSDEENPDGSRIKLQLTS

T2: Cas12i2 wild-type
T2 chain: T1 chain with R563E

B1: crRNA RNF2-7 ; RNF2-7 target (ssRNA ; dsDNA)
RNA: AGAAAUCCGUCUUUCAUUGACGGUUCAACAUAUCCAAACAAAU
DNA 1: TTCAACATATCCAAACAAAT
DNA 2: ATTTGTTTGGATATGTTGAA
B2: crRNA CCR5-3 ; CCR5-3 target (ssRNA ; dsDNA)
RNA: AGAAAUCCGUCUUUCAUUGACGGAGGCCAAAGAAUUCCUGGAA
DNA 1: AGGCCAAAGAATTCCTGGAA
DNA 2: TTCCAGGAATTCTTTGGCCT

How the values were obtained:
Cas12i2 E563R = target: T1, Cas12i2 E563R; assay: cell_activity; HEK293T
Description: (§1) HEK293T cells were cultured in DMEM (Gibco) comprising 1% penicillin-streptomycin (Gibco) and 10% fetal calf serum (Gibco). Cells were seeded in 24-well cell culture dishes (Corning) for 16 hours until cell density reached 70%. By using Lipofectamine 3000 (Invitrogen), 600 ng of plasmid encoding Cas12i2 protein and 300 ng of plasmid encoding crRNA were transfected into each 24-well cell culture dish. After approximately 68 hours of transfection, HEK293T cells to be subjected to fluorescence-activated cell sorting (FACS) were digested with trypsin-EDTA (0.05%) (Gibco). Cell sorting was performed using MoFlo XDP (Beckman Coulter) with GFP channel.
(§2) FACS-sorted GFP-positive HEK293T cells were lysed with buffer L and incubated at 55° C. for 3 h and then at 95° C. for 10 min. PCR amplification of dsDNA fragments comprising target sites in different genomic sites was performed using corresponding primers. For targeted deep sequencing, cell lysate was directly used as a template to directly amplify the target site through barcoded PCR. PCR products were purified and pooled into several libraries for high-throughput sequencing. The frequency (%) of indels was analyzed using CRISPResso2 software by calculating the ratio of reads comprising indels. In this application, the index of indel frequency (%) was uniformly used to compare and analyze gene editing efficiency. Reads with less than 0.05% of complete reads are discarded.

Cas12i2 wild-type = target: T2, Cas12i2 wild-type; assay: cell_activity; HEK293T
Description: as §1, §2

Binder | activity (Cas12i2 E563R) | activity (Cas12i2 wild-type)
B1 | 68.3 % indel | 11.7 % indel
B2 | 55.5 % indel | 10.4 % indel

Source: patent US20240425830, “ENGINEERED CAS12I NUCLEASE, EFFECTOR PROTEIN AND USE THEREOF” (Institute of Zoology, Chinese Academy of Sciences, published 2024)
